Reference: paper PMC13167113

How the values were obtained:
[1] = target: CXCR4 endogenous on cells (human (endogenous in Daudi and Jurkat)) (UniProt P61073)
[2] = target: CXCR4 endogenous on cells (human (endogenous in Daudi and Jurkat)) (UniProt P61073); remark: listed apart in the source

UniProt P61073, sequence (P61073 whole entry): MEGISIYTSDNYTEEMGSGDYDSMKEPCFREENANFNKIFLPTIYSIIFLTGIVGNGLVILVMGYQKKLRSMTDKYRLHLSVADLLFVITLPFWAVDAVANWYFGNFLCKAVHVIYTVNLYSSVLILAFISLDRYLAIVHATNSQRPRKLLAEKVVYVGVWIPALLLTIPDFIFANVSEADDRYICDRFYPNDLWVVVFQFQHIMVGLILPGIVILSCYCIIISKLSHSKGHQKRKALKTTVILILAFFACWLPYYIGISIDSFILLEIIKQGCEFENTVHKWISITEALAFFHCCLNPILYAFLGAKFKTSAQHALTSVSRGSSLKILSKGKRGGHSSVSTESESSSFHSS

**Q.** Which SPT-TIRF: percentage of CXCR4-AcGFP particles that are nanoclusters (≥3 receptors/particle) on JKCD4+X4- cells on gp120-VLP-coated coverslips (basal ∼1%; Env(-) VLPs ∼9%) [1] does the source give for “X4 HIV-1 Env (gp120 and gp41) of HXB2 on virus-like particles (from UniProt P04578 33-511; P04578 512-856) (complex)” here?
**A.** 29%

**Q.** Which SPT-TIRF: percentage of CXCR4-AcGFP particles that are nanoclusters (≥3 receptors/particle) on JKCD4+X4- cells on X4-gp120-coated coverslips (basal ∼2%) [2] does the source give for “recombinant X4 HIV-1 gp120 (residues 31-507, isolate HXB2) with a C-terminal histidine tag (from UniProt P04578 31-507) (domain or fragment)” here?
**A.** 18%
